According to the nanobody polyreactivity screen of Harvey et al. (2022):

Assay: yeast display, Sf9 membrane polyspecificity reagent, FACS + sequencing; frameworks hold sequencing errors
Summary of the method: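 Galactose induction of a Saccharomyces cerevisiae BJ5465 synthetic nanobody display library ran 36–48 hours. The cells were then stained for 1 hour at 4 °C with 10% biotinylated, detergent-solubilized Sf9 membrane reagent, pulled down on streptavidin microbeads and FACS-sorted into low and high (top ~1%) gates on expression and reagent-binding fluorescence. Labels for polyreactivity follow the gate of origin.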

Sequence | polyreactivity (PSR sort gate)
QVQLVESGGGLGQAGGSLRLSCAASGFIFTPYTMGWYRQAPGKERELVAAITDGSSTYYADSVKGRFTISRDNAKNTVYLQMNSLKQEDTAVYYCNDDGKPPYISWLYDYWGLGTQVTVSS | low polyreactivity
QYQLVESGGGLVQAGGSLRLSCAASGRTFYYNAMGWYRQAPGKETELVASITITDSTNYSDSVKGRFTISRDNANNTVYLQMNSLKPEDTAVYYCAKRGLGTSFYLSDYWGQGTQVTVSS | low polyreactivity
QVQLVESGGGLVQAGRSLRISCAASGRIFYYNDMGRYRQAPGKERELVAAITWTDDGTYYADSVKARFTISRDNAKNTVYLQMNSLKPEVTAVYYCAAESFYGFEYWGQGTQLTVSS | low polyreactivity
QVQLVESGGGLVQAGGSLRLSCAASGRILSTYARGWYRQAPGKETELVAAITRTSGSTYYADSVKGRFTISRDNAKNTVYLQMNSLKPEDTAVDYCAADTWLITWSGQYNSWGQGTQVTVSS | low polyreactivity
QVQLVESGGGLVQAGGSLRLSCAASGFIFVRYAMGWYRQAPGKEREMVAAISSGGSTKYADSVKGRFTISRDNAKNTVYLQMNSLKPEDTAVYYCAADATPGRGVDYWGQGTQVTVSS | high polyreactivity
QDQLVESGGGLVQAGGSLRLSCAASGITLQLNAMGWYIQAPGKEREFVARISISGGRTYYADSVKGRFTISRDNAKNTVYLQMNSLKPEDTAVYYCAARVGRGYREYGYWGQGTQVTVSS | high polyreactivity
QVQLVESGGGLVQAGGSLRLSCAASGNTFDGYDMGWYRQAPGNKRELVAAITNTGASTYYADSVKGRCTISRDNAKNTVYLQMNSLKPEDTAVYYCNAQDSYPEDRHGMSYWGQGTQVTVSS | low polyreactivity
QVQLVESGGGLVQAGGSLRLSCAASGFTFKRYAMGWYRQAPGKESELVAVISSGGSTYYADSVKGRFTISRDNAKNTVYLQMNSLKPEDTAVYYCNAYIGGSSWHTALDYWGQGTQVTVSS | high polyreactivity
QVQLVESGGGLVQAGGSLRLSCAATGRTFYQYAKGWSRQAPGKERELVAAISRRGGSTYYADSVKGRFTISRDNAKNTVYLQMNSLKPEDTAVYYCAAQRQYGKFDYWGQGTQVTVSS | high polyreactivity
QVQLQESAGVLVQAGGSLRLRCSASGYISCHASMGWYRQAPGKEGELAASITKGSSTNYADSVKGRFTIRDNAINTVFLQMNSLKPEDTAVCYCAVTYPYWGDYTYWGQGTQVTVSS | low polyreactivity
QVQLVESGGGLVQAGGSLRLSCAASGRTFNRNAMGWYRQAPAKERELVAAITSSGGRTYYADSVKGRFTISRDNAKNTVYLQMNSLKPEDTAVYYCNVGPYYPVYLGYLLWYDYWGQGTQVTVSS | high polyreactivity
QVQLVESGGGLVQAGGSLRLSCAASGSIFTSYAMGWYRQAPGKERELVAAISRRGSRTYYADSVKGRFTISRDNANNTVYLQMNSLKPEETAVYDCAAKSGGQPGDSWGQGTQVTVSS | high polyreactivity
QVQLVESGGGLVQAGGTLRLSCAPSGHIVFYYTKGWYRQAPGKERELVAGITIGGSTNYADSVKGRFTISRDNAKNTVYLQMNSLKPEDTAVYYCNVVKYVYIYSYWEYYYWGQGTQVTGSS | low polyreactivity
QVQLVESGGGLVQAGGSLRLSCAASGRTLGGYTMGWYRQAPGKERELVAAITTGGSTNYADSVKGRFTISRDNAKNTVYLQMKSLIPEDTAVYYCATDLVFDKRYWYDFWGEGTQVTVSS | low polyreactivity
QVQLVESVGCLVQAGGSLRLSCAASGSTFDYYAMGWYRQAPGKERELVAAITSTGRTYYADSVKGRFTISRDNAKNTVYLQMNSLKPEDTAVYYCAADLPWGPLFDYWGQGTQVTVSS | low polyreactivity
QVQLVESGGGLVQAGGSLRLSCAASGITFSGYDMGWYRQAPGKERELVADITISTGSTYYADSVKGRFTISRDNANNTVYLQMNSLKPEDTAVYYCAADWQQDRTVVLPSWGHAYDSWGQGTQVTVSS | low polyreactivity

Sequence | polyreactivity (PSR sort gate)
QVQLVESGGGLVQAGGSLRLSCAASGSTQYSYAMGWYRQAPGKERELVAAINSGSNTYYADSVKGRFTISRDNAKNTVYLQMNSLKPEDTAVYYCAAKGIIYTGYDGARRAYGYWGQGTQVTVSS | high polyreactivity
QVQLVESGGGLVQAGGSLRLSCAASGLTFGYNAMGWYRQAPGKERELVAAITYGGGRTYYADSVKGRFTISRDNAMNTVYLQMNSLKPEDPAVYYCNVVWKAYAEYDYWGQGTQVTVSS | high polyreactivity
QVQLVESGGGLVQAGGSLRLTCAASGSIFRGYDMRWYRQAPGKERELVAASTWSGSTYYADSVKGRFTISRDNGKNTVYLQMNSLKPEDTAVYYCAAGSRYAYAYTMDYWGQGTQVTVSS | high polyreactivity
QVQLVESGGGLVQAGGRLRLSCEASGNIFGYYAMGWSRQAPGKERELVAAITRSGSSTYYADSVKGRFTISRDNAKNNVFLQMNSLKPEDTAVYYCSADNFYQAYGYWGQGTQVTVSS | low polyreactivity
QVQLVESGGGLVQAGGSLRLSCAASGSIFRPYAMGWYRQAPGKERELVATITWSGGSTYYADSVKGRFTISRDNAKNTVYLQMNSLKPEDTAVYYCAADPDLLWEYSDGYYGGDGGYWGQGTQVTVSS | low polyreactivity
QVQLVETGGGLVQAGGSLRLSCAASGNTFGDYAMGWYRQAPGKERELVAAISRSGGSTSYADSVKGRFTISRDNAKNTVYLQMNSLKPADTAVYYCAAYWQRFGYDYWGQGTQVTGSS | low polyreactivity
QVQLVESGGGLVQAGGSLRLSCAASGSTFRHYAMGLYRQAPGKERELVAAISSTGGSTYYADSVKGRFTISRDNAKNTVYLQMNSLKPEDTAVYYCAASPYGFRRNYYWGQGTQVTVSS | high polyreactivity
QVQLVESGGGIVQAGGSLRLSCAASGRIFGIYAMGWYRQAPGKERELVASITDGTITNYADSVKGRFTISRDNAKYTVYLQMNSLKPEDTAVYYCAAGTQAHAYVVRPIEMDYWGQGTQVTVSS | low polyreactivity
QVQLVESGGGLVQAGGSLRLSCAASGLTFSAYAMGWYRQAPGKERELVAAITSSGGSTYADSVKGRFTLSRDNAKNTVYLQMNSRKPEDTAVYYCNADLGDYGWYSSYDYWGQGNQVTVSS | low polyreactivity
QVQLVESGGGLVQAGGSLRLSCAASGGTFGVNAMGWYRQAPGKDRELVAAISSSGGRTYYADSVKGRFTISRDNAKNTVYLQMNSLKPEDTAVYYCAARNYFWGQGTQVTVSS | low polyreactivity
QVQLVESGGGLVQAGGSLRLSCAATGYTFFFYAMGWYRQAPGKEREFVAASTWRGDSTYYADSVKGRFTISRDNAKNTVYLQMNSLKPEDTAVYYCAADPGFTWSRRMDYWGQGTQVTVSS | low polyreactivity
QFQLVESGGGLVQAGGSLRLSCAASGSTFIYNTMGWYRQAPGKERELVATIRRSGGITYYADSVKGRFTISRDNAKNTVYLQMNSLKPEDTAVYYCNAKPNRYSAKIVQYDSWGQGTQVTVSS | low polyreactivity
QVQIVESGGGLVQAGGSLRLSCAASGFTFWRNAMVWYRQAPGKERELVAAINWSGGSTYYADSVKGRFTISRDNAKNTVYLQMNSLKPEDTAVYYCAADLSSRGISQDDYWGQGTQVTVSS | high polyreactivity
QVQLVESGGGLVQAGGSLRLICAASGRTLWSNAMGWYRQAPGKEMELFATISRGGGSTSYADSVKGRFTISRYNAKKTVYLQLYSLKPEDTSVYYCNNYPYIQRTWWYDYWGQGTQVTVSS | high polyreactivity
QVQLVESGGGLVQAGGSLRLCCAASGLTFHRYAMGSYRQAPGKERELDAAINYSGGRTYYADSVKGRFTISRDNAKNTVYLQMNSLKPEDTAVYYCAAPRASGYYWGQGTQVTVSS | high polyreactivity
QVQLVESGGGLVQAGGSLRLSCAASGRTFTANAMGWYRQAPGKERELVAAIRWRGGSTSYADSVKGRFTISRDNAKNTVYLQMNSLKPEDTAVYYCAAESRWRSSAGGYYYWGQGTQVTVSS | low polyreactivity
